What is called stoichiometry N is a count of units in the complex or per binding partner.

The values that follow come from PMC2151178.

The test deals with DdUnc104 (Dictyostelium Unc104), 245-kD kinesin (Dictyostelium discoideum (endogenous in wild-type cells)) (UniProt Q9NGQ2). The experiment in a line: SEC + other: sucrose density gradient velocity sedimentation.

As to “DdUnc104 (Dictyostelium Unc104), 245-kD kinesin, Q9NGQ2 1-2205”, the stoichiometry N stood at 2.
